PMC11180338 (The Journal of Biological Chemistry, 2024)
Where two headings read alike, the source gives them in different places.

Tests used:
[1] = target: nucleocapsid protein (N) 175-365 (UniProt P0DTC9); settings: sites S188
[2] = target: nucleocapsid protein (N) 175-245 (UniProt P0DTC9); settings: sites S188
[3] = target: nucleocapsid protein (N) 175-245 (UniProt P0DTC9); settings: sites S188; remark: listed apart in the source
AUC = target: the molecule itself; assay: AUC

nucleocapsid protein (N) 175-365 (from UniProt P0DTC9)
binding against the reference [1]: same

nucleocapsid protein (N) 175-245 (from UniProt P0DTC9)
binding against the reference [2]: weaker | binding against the reference [3]: weaker

B1: WT-N_(175–245) GFP, GFP-tagged N_(175–245) (domain or fragment)
chain: GSRGGSQASSRSSSRSRNSSRNSTPGSSRGTSPARMAGNGGDAALALLLLDRLNQLESKMSGKGQQQQGQT
Kd (AUC): 77 µM | stoichiometry N (AUC): 2

B2: pSer188-N_(175–245) GFP (domain or fragment)
chain: B1 chain
modifications: phosphoserine at 188
Kd (AUC): 235 µM
